Reference: the supplement of paper PMC11780869

Test system: Bacillus subtilis
Assay: cleaved RNA product abundance (RNA/gDNA barcode ratio) relative to median wild-type variant (ratio to wild type); higher = more accumulation of the downstream cleavage product
Details: cleavage site: cggR-gapA (positions -7 to +36 mutated)
How it was run: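 Cleaved product abundance is expressed as the RNA:gDNA barcode ratio per construct, scaled to the median construct carrying the unmutated site. The constructs were barcoded, mutagenized RNase Y cleavage-site windows in truncated aprE or tetM reporter mRNAs integrated into the B. subtilis chromosome. Cultures grew in LB at 37°C from OD600 0.0003 to 0.3 before cleaved RNA was gel-selected and barcode-sequenced.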

[1] = experiment (reporter, strain, medium): exp 4a: truncated aprE reporter, strain BJT201 with 2% xylose (RNase J1 expressed)
[2] = experiment (reporter, strain, medium): exp 2b: truncated aprE reporter, strain BJT200

Row | Sequence | cleaved RNA product abundance [1] | cleaved RNA product abundance [2] | cleaved RNA product abundance (experiment (reporter, strain, medium): exp 6: tetM reporter, strain 168)
1 | ACAGACGAAGGAGCCGCAAAGAAGTTATTACGGGATGAATAATCCCTCAATATAGATATCTCTCACTTATTTAAA | 0.351 | – | –
2 | ACAGACGAAGGAGCCGCAAAGAAGTTATTACGGGATGAATAATCCCTCGATATAAATATCTCTCACTTATTTAAA | 0.259 | – | –
3 | ACAGACGAAGGAGCCGCAAAGAAGTTATTACGGGATGAATAATCCCTTAATATAAATATCTCTCACTTATTTAAA | 1.47 | – | –
4 | ACAGACGAAGGAGCCGCAAAGAAGTTATTACGGGATGAATAATGCCTCAATATAAATATCTCTCACTTATTTAAA | 0.128 | – | –
5 | ACAGACGAAGGAGCCGCAAAGAAGTTATTACGGGATGAATCATCCCTCAATATAAATATCTCTCACTTATTTAAA | – | 0.316 | –
6 | ACAGACGAAGGAGCCGCAAAGAAGTTATTACGGGATGAATGATCCCTCAATATAAATATCTCTCACTTATTTAAA | 0.247 | – | –
7 | ACAGACGAAGGAGCCGCAAAGAAGTTATTACGGGATGATTAATCCCTCAATATAAATATCTCTCACTTATTTAAA | 0.204 | – | –
8 | ACAGACGAAGGAGCCGCAAAGAAGTTATTACGGGTTGAATAATCCCTCAATATAAATATCTCTCACTTATTTAAA | 0.16 | 0.087 | –
9 | ACAGACGAAGGAGCCGCAAAGAAGTTATTACGGTATGAATAATCCCTCAATATAAATATCTCTCACTTATTTAAA | 0.141 | – | –
10 | ACAGACGAAGGAGCCGCAAAGAAGTTATTACGTGATGAATAATCCCTCAATATAAATATCTCTCACTTATTTAAA | 0.113 | 0.0928 | –
11 | ACAGACGAAGGAGCCGCAAAGAAGTTATTACTGGATGAATAATCCCTCAATATAAATATCTCTCACTTATTTAAA | 0.199 | – | –
12 | ACAGACGAAGGAGCCGCAAAGAAGTTATTAGAGGATGAATAATCCCTCAATATAAATATCTCTCACTTATTTAAA | 0.301 | – | –
13 | ACAGACGAAGGAGCCGCAAAGAAGTTATTAGGAGATGAATAATCCCTCAATATAAATATCTCTCACTTATTTAAA | 0.24 | – | –
14 | ACAGACGAAGGAGCCGCAAAGAAGTTATTAGGGCATGAATAATCCCTCAATATAAATATCTCTCACTTATTTAAA | 0.132 | – | –
15 | ACAGACGAAGGAGCCGCAAAGAAGTTATTAGGGGAAGAATAATCCCTCAATATAAATATCTCTCACTTATTTAAA | – | 0.278 | –
16 | ACAGACGAAGGAGCCGCAAAGAAGTTATTAGGGGATGAATAATACCTCAATATAAATATCTCTCACTTATTTAAA | 0.211 | – | –
17 | ACAGACGAAGGAGCCGCAAAGAAGTTATTAGGGGATGAATAATCACTCAATATAAATATCTCTCACTTATTTAAA | 0.112 | 0.114 | –
18 | ACAGACGAAGGAGCCGCAAAGAAGTTATTAGGGGATGAATAATCCCTCAAAATAAATATCTCTCACTTATTTAAA | 0.476 | 0.351 | –
19 | ACAGACGAAGGAGCCGCAAAGAAGTTATTAGGGGATGAATAATCCCTCAATATAAATATCTCTCACTTATTTAAA | 0.718 | 0.699 | 0.377
20 | ACAGACGAAGGAGCCGCAAAGAAGTTATTAGGGGATGAATAATCCCTGAATATAAATATCTCTCACTTATTTAAA | 0.371 | – | –
21 | ACAGACGAAGGAGCCGCAAAGAAGTTATTAGGGGATGAATAATCCCTTAATATAAATATCTCTCACTTATTTAAA | 0.808 | – | –
22 | ACAGACGAAGGAGCCGCAAAGAAGTTATTAGGGGATGAATAATCCTTCAATATAAATATCTCTCACTTATTTAAA | 0.636 | – | –
23 | ACAGACGAAGGAGCCGCAAAGAAGTTATTAGGGGATGACTAATCCCTCAATATAAATATCTCTCACTTATTTAAA | 0.63 | – | –
24 | ACAGACGAAGGAGCCGCAAAGAAGTTATTAGGGGATGGATAATCCCTCAATATAAATATCTCTCACTTATTTAAA | 0.709 | 0.481 | –
25 | ACAGACGAAGGAGCCGCAAAGAAGTTATTAGGGGATTAATAATCCCTCAATATAAATATCTCTCACTTATTTAAA | 0.866 | – | –
26 | ACAGACGAAGGAGCCGCAAAGAAGTTATTAGGGGTTGAATAATCCCTCAATATAAATATCTCTCACTTATTTAAA | 0.254 | – | –
27 | ACAGACGAAGGAGCCGCAAAGAAGTTATTAGGGTATGAATAATCCCTCAATATAAATATCTCTCACTTATTTAAA | 0.361 | – | –
28 | ACAGACGAAGGAGCCGCAAAGAAGTTATTAGGTGATGAATAATCCCTCAATATAAATATCTCTCACTTATTTAAA | 0.331 | – | –
29 | ACAGACGAAGGAGCCGCAAAGAAGTTATTAGTGGATGAATAATCCCTCAATATAAATATCTCTCACTTATTTAAA | 0.385 | 0.295 | –
30 | ACAGACGAAGGAGCCGCAAAGAAGTTATTATAGGATGAATAATCCCTCAATATAAATATCTCTCACTTATTTAAA | 0.203 | 0.149 | –
